This is an account of results in the nanobody polyreactivity screen of Harvey et al. (2022).

This series in a line: yeast display, Sf9 membrane polyspecificity reagent, FACS + sequencing; frameworks hold sequencing errors. In a few lines:
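A nanobody's polyreactivity label depends on the gate it was sorted from. Yeast display cells were stained with 10% biotinylated, detergent-solubilized Sf9 membrane reagent for 1 hour at 4 °C, enriched on streptavidin microbeads and sorted by FACS. The low and high (top ~1%) gates were set on anti-HA fluorescence for expression and streptavidin fluorescence for reagent binding.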
As for “QVQLVESGGGLVQAGGSLRLSCAASGRIFPHYAIGWYRQAPGKERELVAAISTSGGSTYYADSVKGRFTISRDIAKNTVYLQLNCLKPEDTEVYYCAARGYQYGFYYLVIYDYWGQGTQVTVSS”, the “polyreactivity (PSR sort gate)” value is on record as “low polyreactivity”.
For the sequence “QVQLVESGGGLVQAGGSLRLSCAASGRTLEHNAMGWYRQAPGKERELVAAITDGGASTYYADSVKGRFTISRENAKNTVYLQMNSLKPEDTAVYYFAADTYPTTSEFDYWGQGTQVTVSS”, the “polyreactivity (PSR sort gate)” value was “low polyreactivity”.
In the case of “QVQLVESGGGLVQAGGSLRLSCAASGFTFDNYVMGWYSQAPGKERELVAAISKSGTSTYYADSVKGRFTISRDNAKNTVYLQMNSLKPEDTAVYYCAAALPGYGDYYYWGQGTQVTVSS” it was “high polyreactivity”; in that of “QVQLVESGGGLVQAGGSLRLSCAASGSIFYVNAMGWYRQAPGKERELVAAISYRGGSTYYADSVKGRFTISRDNAKNTVYLQMNSLKPEDTAVYYCAARGYYRPSQTTGRIKYDYWGQGTQVTVSS”, “high polyreactivity”.
In the case of “QVQLVESGGGLVQAGGSLRLSCAASGFTMARYAMGSYRQAPGKERELVAAISWSGGSTYYADSVKGRFTISRDNAKNTVYLQMNSLKPEDTAVYYCNAVYATRIGFDYWGQGTQVTVSS” it was “high polyreactivity”; in that of “QVQLVESGGGLVQAGGSLRLSCAASGTFQSNAMGRYRPAPGKERELVAAITSGGSTNYADSVKGRFTISRDNAKNTVYLQMNSLKPEDTAVYYCAAVRRYRASRGSLYYYWGLGTQVTVSS”, “high polyreactivity”.
For the sequence “QVQLGESGGGLVQAGGRLRLSCAASGFTFNTYAMGWYRQAPGKVRALVATITSDGSTTYADSVKGRFTISRDNAKNTVNLQMNSLKPEDTAVYYFNARVWVHRYYYYFTHIITYDYWGQGTQVTVSS”, the “polyreactivity (PSR sort gate)” value is on record as “low polyreactivity”.
On to “QVQLVESGGGLVQAGGSLRLSCAASGRIFWDYGMGWYRQAPGKERELVAVITWGGGSTYYADSVKGRFTISRDNAKNTVYLQMNSLKPEDTAVYYCAKEYHYYYWGQGTQVTVSS”, for which the “polyreactivity (PSR sort gate)” value was “low polyreactivity”.
In the case of “QGQLVESGGGEVQAGGSLRLSCAASGFTFGSNAMGWYRPAPGKERELVAAISSTGSTYYADSVKGRFTLSRDNAKNTVYVQMNSLKPEDPAVYYCNADSDTPRYDYWGQGTQVTVSS” it was “low polyreactivity”; in that of “QVQLVESGGGLVQAGGSLRLICAASGFIIRYYAMGWYRQAPGKERELVAVISASGGSTYYADSVKGRFTISRDNAKNTVYLQMNSLKPEDTAVYYCNTKRYFFHRGDMDYWGQGTQVTVSS”, “high polyreactivity”.
For the sequence “QVQLVESGGGLVQAGGSLRISCAASGRIFYCYVMGWYRQAPGKERELVAAINLSGTSTYYADSVKGRFTISRDNAKNTVYLQMNSLKPEDTAVYYCAADQVGWTYDYWGQGTQVTVSS”, the “polyreactivity (PSR sort gate)” value is listed as “low polyreactivity”.
In the case of “QVQLVESGGGLVQAGGSLRLSCAASGSIFGVNAMGWYRQAPGKERELVADITKSTGDTYADSVKGRFTISRDNAKNTVYLQMNSLKPEDTAVYYCNARFTVKQKRLYLYDYWGQGTQVTVSS” it was “low polyreactivity”; in that of “QVQLVESCGGLVQAGGSLRLSCAASGSTFDGYAMGWYRQAPVKERELVAAISASGGSTYYADSVKGRFTISRDNAKNTVYLQMNSLKPEDTAVYYCNSEPFDLWAFYYCYVYGYYHWGQGTQVTVSS”, “high polyreactivity”; in that of “QVQIVESGGGLVQAGGSLRLSCAASGFIFQTNVMGWYRQAPGKERELVAAISSGDSTYYADSVKGRFTISRDNAKNTVYLQMNSLKPEDTAVYYCAADVLGTTTTVGGFNYWGQGTQVTVSS”, “low polyreactivity”.
The entry for “QVQLVESGGGLVQAGGSLRLSCAASGSTFVWNAMGWYRQAPGKERELVATITLSTGSTYYADSVKGRFTISRDNAKNTVYLQMNSLKPEDTAVYYCNTEIYVDIISDYGYWGQGTQVTVSS” is “low polyreactivity”; for “QVQLVESGGGLVQAGGILRLSCAASGFTFLAYAMGWYRQAHGKERELVAAISAYSGRTRYADSVKGRFTISRDNAKNTVYLQMNSLKPEDTAVNYCAARYRGTYRRDYWGQGTQVTVSS” it is “high polyreactivity”.
In the case of “QVQLVESGGGLVQAGGSLRLSCAASGFIFSYYAMGWYRQAPGKERELVAAISKTGGNTFYADSVKGRFTISRDNAKNTVYLQMNSLKPEDTGVYYCNALRGDWRDMGYWGQGTQVTVSS” it was “high polyreactivity”.
Take “QVQLVESGGGLVQAGGSLRLSCAASGIIYVYAMGWYRQAPGKERELVAAITWSGGSTYYADSVKGRFTISRDNAKNTVYLQMNTLKPEDTAVYYCARGQGGEYDLDYDYWGQGTQVTVSS”: the “polyreactivity (PSR sort gate)” value is “low polyreactivity”.
For “QVQLVESGGGLVQAGGSLRLSCAASGSIFSRYAMGWYRQAPGKERELVAAISRRGGTTYYADSVKGRFTISRDNAKNTVYLQMNSQKPVDTAVYYCAAVFVTQSFIYDYYYWGQGTQVTVSS”, the “polyreactivity (PSR sort gate)” value was “high polyreactivity”.
With “QVQLVESGGGLVQAGGSLRLSCAASGSTFVPYTMGWYRQAPGKERELVAVITSGGSTNYADSVKGRFTISRDNAKNTVYLQMNSLKPEDTAVYYCAAYGGTHYTYRYDYWGQGTQVTVSS”, the “polyreactivity (PSR sort gate)” value is “high polyreactivity”.
As to “QVQIVESGGGLVQAGGSLRLSSAASGNIFVYYAMGGYRQAPGKERELVAALTSDVSTYYADSVKGRFTISRDNAKNTVYLQMNSLKPEDTAVYYCNKVTPGRYYYSVTTGDYWGQGTKVTVSS”, the “polyreactivity (PSR sort gate)” value is reported as “low polyreactivity”.
Regarding “QVQLVESGGGLVQAGGSLRLSCADSGSIFVKNAMGWYRQAPGKERELVATISTGGRTYYADSVKGRFTISLDNAKNTVYLQMNSLKPEDTAVYYCATDFYPRYLLRTYRPYYYWGQGTQVTVSS”, the “polyreactivity (PSR sort gate)” value is listed as “low polyreactivity”.
The entry for “QVQLVESGGGLVQAGGSLRLSCAASGIIFFKYAMGWYRQAPGKERELVARISWSGSTYADSVKGRFTISRDNAKNTVYLQMNSLKPEDTAVYYCAADSFTITADSDDYWGQGTQVTVSS” is “low polyreactivity”.
As to “QVQLEDSGGGLVQAGGTLRLRCAASGITFGTNDMGWYRKAPGKETELVAAIDGSGETYYADSVKGRFTISRDNAKNTVYLLMNSLKPVDTAVYYCAADVIYWFSGEYDYWGQGTQVIVSS”, the “polyreactivity (PSR sort gate)” value is listed as “low polyreactivity”.
In the case of “QVQLVESGGGLVQAGGSLRLSCAASGRTFRTYTMGWYRQAPGKEREFVAAITSSGASTYYADSVKGRFTISRDNAKNTVYLQKNSLKPEDTAFYYCAARYGRRLVWVPALLYDYWGQGTQVTVSS” it was “high polyreactivity”; in that of “QVQLVESGGGLVQAGGSLRLSCAASGRTFYKNAMGWYRQAPGKEREFVASISVSGGRTYYADSVKGRFTISRDNAKNTVYLQMNSLKQEDTAVYYCNARASPLSQRDYWGQGTQVTVSS”, “low polyreactivity”.
The entry for “QVQLVESGGGLVQAGGSLRLSCAASGSIFSRYAMGWYIQAPGKERELVAAISTGGGRTYYADSVKGRFTISRDNAKNTVYLKMNSLKPEDTAVYYCAAPQQQSWTYDGRYGYWGQGTQVTVSS” is “high polyreactivity”; for “QVQLVESGGGLVQAGGSLRLSCAASGTFVTYMGWYRQAPGKERELVAAIRNGGSTNYADSVKGRFTISRDKAKNTVYLQMNSLKPEDTAVYYCAADRAGSIMNYWGQGTQVTVSS” it is “low polyreactivity”; for “QVQLVESGGGLVQAGGSLRLSCAASGLTFSDYAIGWYRQAPGKEREFVAAITRNGGSTRYADSVKGRFTFSRDNAKNTVYLKMNRLKPEDTAVYYCATDVGFGRKQRPHRPGYGYWGQGTQVTVSS” it is “low polyreactivity”.
On to “QVQLVESGGGLVQAGCSLRLSCAASGFIFTSYAMGWYRQAPGKERDLVAAITRSGGRTYYADSVKGRFTISLDNAKITVYLQMNSLKPEDTAVYYCAAVTFYQSPARGYWGQGTQVTVSS”, for which the “polyreactivity (PSR sort gate)” value is “high polyreactivity”.
For “QVQLVESGGGLVQAGGSRRLSCAASGSTFYGYAMGWYRHAPGKEREFVAAITTSGGSTYYADSVKGRFTISRDNAKNTVYLQMNSLKPEDTAVYYCAADGFYYDDGYWGQGTQVTVSS”, the “polyreactivity (PSR sort gate)” value was “low polyreactivity”.
As to “QVQLVESGGGLVQAGGSLRLSCAASGLIYYRNAMGWYRQAPGKERELVAAISSDGSTYYADSVKGRFTISRDNPKNTVYLQMNSLKAEDTAVFYCAADYREFDAYGAARTLDFDYWGQGTQVTVSS”, the “polyreactivity (PSR sort gate)” value was “low polyreactivity”.
The entry for “QVQLVESGGGLVQAGGSLRLSCAASGRIFGINSMGWYRQAPGKERELVAAITGGGSTYADSVKGRFTISRDNAKNTVYLQMNSLKPEDTAVYYCAAVSPRRYRYDYWGQGTQVTVSS” is “low polyreactivity”.
In the case of “QVQLVESGGGLVQAGGSLRLSCAASGLTFRFYTMGWDRQAPGKERELVAAISTSGGSTYYADSVKGRFTISRDNAKNTVYLQMNSLKPEDTAVYYCNAVYALNGYDYWGQGTQVTVSS”, the “polyreactivity (PSR sort gate)” value is given as “low polyreactivity”.
In the case of “QVQLGESGGGLVQAGGSLRLSCAASGRTFDYYAMGWYRQAPGKEWQLVAAISGSGGTTYYADSVKGRFTISRENAKNTVYLQMNSLKAEDTAVYNCDTVRSRLFGQYYYWGQCTQVTVSS” it was “high polyreactivity”; in that of “QVQLVESGGGLVQAGGSLRLRCAASGSTFLKNAKGWYRQAPGKERELVAAISYSTTRSYYADSVKGRFTISRDNAKNTVYLQMNSLKPEDTAVYYCAADGYWWTYTRYDYWGQGTQVTVSS”, “low polyreactivity”; in that of “QVQLVESGGGLVQAGGSLRLSCAASGRTILGYTMGWYRQAPGKESEFVAAITFSGDSTYYADSVKGRFTISRDKAKNTVYLQMNSLKPEDTAVYYCAAAIPRFSAGHYDYWGQGTQVTVSS”, “high polyreactivity”.
In the case of “QVQLVESGGGLVQAGGSLRLSCAASGITFGRNTKGWYRQAPGKERELVAAIDSGGNTYADSVKGRFTISRDNAKNTVYLQMNSLKPEDTAVYYCNAGYVHSFDYWGQGTQVTVSS”, the “polyreactivity (PSR sort gate)” value was “low polyreactivity”.
The entry for “QVQLVESGGGLVQAGGSLSLSCAASGSTFGSNAKGWYRQAPGKARELVAAISSDGSTNYADSVKGRFTISRDNAKNTVYLQMNSLKPEDTAVYYCAADDRHRYNIYDYWGQGTQVTLSS” is “low polyreactivity”; for “QVQLVESGGGLVQAGGSLRLSCAASGRIFVRNGMGWYRQAPGKERELVAAISASGGNTYYADSVKGRFTISRDNAKNTVYLQMNSLKPEDTAVYYCATTRRVPGEYWGQGTQVTVSS” it is “high polyreactivity”; for “QVQLVESGGGLVQAGGSLSLSCAASGSTFDRYAMGWYRQAPGKERELVAAISHSGGRTYYADSVKGRFTISRDNAKNTVYLQMNSLKPEDTAVFYCAAKSRSGTEAAYGYWGQGTQVTVSS” it is “low polyreactivity”.
